Results reported in patent publication US20250074980A1 (BRIGHAM AND WOMEN S HOSPITAL, published 2025).
Where a chain is given by its changes, count along the chain named. Names may count otherwise. Each block holds one molecule with its values, some of them ahead of it.

Legend:
[1] = target: T1, CEACAM5 on transfected HeLa cells (human, UniProt P06731 35-685); assay: flow cytometry, transfected HeLa
T1 construct: whole, on cells; also called HeLa-CEACAM5; HeLa C5
T1 sequence (looked up): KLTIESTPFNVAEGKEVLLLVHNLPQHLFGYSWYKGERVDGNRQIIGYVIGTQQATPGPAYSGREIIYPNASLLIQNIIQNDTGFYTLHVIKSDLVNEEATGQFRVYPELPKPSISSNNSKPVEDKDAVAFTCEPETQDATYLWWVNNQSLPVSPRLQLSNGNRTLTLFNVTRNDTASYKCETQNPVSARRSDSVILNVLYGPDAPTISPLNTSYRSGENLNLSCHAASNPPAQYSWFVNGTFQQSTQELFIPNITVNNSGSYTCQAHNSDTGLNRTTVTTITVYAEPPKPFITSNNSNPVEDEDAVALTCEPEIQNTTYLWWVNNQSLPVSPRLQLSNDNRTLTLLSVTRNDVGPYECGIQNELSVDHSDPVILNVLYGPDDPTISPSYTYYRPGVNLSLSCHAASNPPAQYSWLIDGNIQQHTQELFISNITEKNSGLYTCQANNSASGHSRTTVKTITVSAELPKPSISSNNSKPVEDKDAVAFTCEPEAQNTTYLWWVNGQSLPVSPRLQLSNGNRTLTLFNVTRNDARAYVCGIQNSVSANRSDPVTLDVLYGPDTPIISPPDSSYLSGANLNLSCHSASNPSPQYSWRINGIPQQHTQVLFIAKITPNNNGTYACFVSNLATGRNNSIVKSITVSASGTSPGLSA

[2] = target: T2, CEACAM1 on transfected HeLa cells (human, UniProt P13688 35-526); assay: flow cytometry, transfected HeLa
T2 construct: also called HeLa-CEACAM1; HeLa C1
T2 sequence: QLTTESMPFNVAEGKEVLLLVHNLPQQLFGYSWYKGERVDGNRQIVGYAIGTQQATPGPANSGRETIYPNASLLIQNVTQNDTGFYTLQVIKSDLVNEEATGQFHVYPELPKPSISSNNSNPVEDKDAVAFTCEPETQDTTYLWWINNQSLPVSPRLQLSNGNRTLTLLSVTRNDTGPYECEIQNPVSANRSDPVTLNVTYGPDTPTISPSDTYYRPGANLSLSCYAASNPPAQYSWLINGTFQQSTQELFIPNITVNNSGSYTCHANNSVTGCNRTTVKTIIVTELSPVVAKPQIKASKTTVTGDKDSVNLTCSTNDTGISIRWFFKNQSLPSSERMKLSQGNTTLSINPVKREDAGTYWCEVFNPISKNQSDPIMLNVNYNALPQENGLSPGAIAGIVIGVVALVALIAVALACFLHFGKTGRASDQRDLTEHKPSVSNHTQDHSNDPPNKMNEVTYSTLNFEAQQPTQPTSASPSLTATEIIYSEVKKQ

[3] = target: T3, CEACAM6 on transfected HeLa cells (human, UniProt P40199 35-320); assay: flow cytometry, transfected HeLa
T3 construct: whole, on cells; also called HeLa-CEACAM6; HeLa C6
T3 sequence (looked up): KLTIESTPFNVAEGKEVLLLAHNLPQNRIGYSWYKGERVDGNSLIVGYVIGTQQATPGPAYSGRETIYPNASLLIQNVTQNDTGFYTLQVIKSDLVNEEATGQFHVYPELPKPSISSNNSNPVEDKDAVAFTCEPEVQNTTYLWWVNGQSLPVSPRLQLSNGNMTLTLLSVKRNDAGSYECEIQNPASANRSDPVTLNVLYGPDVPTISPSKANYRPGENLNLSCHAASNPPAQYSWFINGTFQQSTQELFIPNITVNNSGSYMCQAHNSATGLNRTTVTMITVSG

His-tagged CEACAM1 [4] = target: T4, His-tagged CEACAM1 (human, UniProt P13688 35-428); assay: SPR multi-cycle
T4 construct: 45 kDa SPR analyte; also called CEACAM1-HIS; CEACAM1 analyte
T4 sequence: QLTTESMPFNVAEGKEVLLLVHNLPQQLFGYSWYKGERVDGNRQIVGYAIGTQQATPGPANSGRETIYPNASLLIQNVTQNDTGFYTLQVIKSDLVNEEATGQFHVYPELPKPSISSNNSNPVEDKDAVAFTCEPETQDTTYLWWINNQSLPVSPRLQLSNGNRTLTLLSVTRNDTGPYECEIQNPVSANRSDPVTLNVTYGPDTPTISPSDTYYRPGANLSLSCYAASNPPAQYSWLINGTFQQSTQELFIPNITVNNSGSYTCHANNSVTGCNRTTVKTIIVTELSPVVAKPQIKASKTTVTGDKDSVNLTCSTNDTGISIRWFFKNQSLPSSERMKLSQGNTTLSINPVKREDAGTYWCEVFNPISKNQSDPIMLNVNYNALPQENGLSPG
How it was run: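 Surface plasmon resonance multi-cycle kinetics on a Biacore T200 at 25° C in HBS-P+ (pH 7.4). Purified antibody at 1 μg/ml was captured on a Series S Protein A chip to ~75 RU, with His-tagged CEACAM1 analyte in 2-fold dilutions from 200 to 3.125 nM or 100 to 1.5625 nM at 80 μl/min. Association was 50 or 150 seconds and dissociation 100 seconds, with glycine-HCl pH 1.5 regeneration. Kon, koff, Kd and relative KD come from these sensorgrams.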

[5] = target: T5, CEACAM3 on transfected HeLa cells (human, UniProt P40198 35-252); assay: flow cytometry, HeLa-CEACAM3 transfectants, % staining, stacked bars
T5 construct: whole, on cells; also called HeLa-CEACAM3; HeLa C3
T5 sequence (looked up): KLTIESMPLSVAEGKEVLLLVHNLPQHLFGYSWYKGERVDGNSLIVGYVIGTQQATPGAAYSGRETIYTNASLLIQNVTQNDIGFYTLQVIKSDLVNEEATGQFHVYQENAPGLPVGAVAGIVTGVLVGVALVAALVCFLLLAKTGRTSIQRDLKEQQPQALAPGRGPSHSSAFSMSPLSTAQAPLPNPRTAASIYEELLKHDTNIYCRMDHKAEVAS
Excerpt: (§1) FIG. 11 illustrates the binding selectivity of different affinity-matured CEACAM1 antibodies. […] HELA cells were transfected with vector alone (HeLa-Neo) or vectors expressing CEACAM1, CEACAM3, CEACAM5, or CEACAM6, respectively, and stained with the indicated antibodies. […] MOPC=mouse IgG1 control antibody. Mouse antibodies as positive control for transfected CEACAM isoforms: Col-1=CEACAM3 and CEACAM5 antibody. 9A6=CEACAM6 antibody. T84.1=CEACAM cross-reactive antibody and T84.66=CEACAM5 antibody. Only 2nd FITC=No primary antibody, only secondary FITC conjugated antibody. […] Data for affinity-matured antibodies 9B3_8H3/Vκ8 S29A, 8H3_9B3/CP08_E05, and 8H3_9C2/CPO08_F05, as well as data for CEACAM8 antibody 80H3 were omitted from the FIG. due to an unusually high background signal.

His-tagged CEACAM1 [6] = target: T4, His-tagged CEACAM1; assay: SPR single-cycle, purified IgG captured
How it was run: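 Purified IgG was captured on a Series S Protein A chip in a Biacore T200 at 25° C in HBS-P+ (pH 7.4), with His-tagged CEACAM1 as the analyte in single-cycle kinetics surface plasmon resonance. Kon, koff and Kd were fitted from signals corrected for the reference channel and blank runs, and relative KD was calculated against the parent antibody tested alongside.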

His-tagged CEACAM1 [7] = target: T4, His-tagged CEACAM1; assay: SPR single-cycle, supernatant IgG captured
How it was run: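 Humanized, affinity-matured IgGs from crude supernatant (0.5 μg/ml in HBS-P+) captured on Protein A to ~100 RU. Single-cycle kinetics: CEACAM1 at three concentrations, 70–280 nM two-fold, 80 μl/min, 80 s association each, 150 s dissociation. Reference-channel and blank-run subtraction applied.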

His-tagged CEACAM1 [8] = target: T4, His-tagged CEACAM1; assay: SPR single-cycle, supernatant IgG captured; remark: listed apart in the source
How it was run: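 IgG came from supernatants of HEK EBNA cells transiently transfected by PEI in 6-well plates and harvested 5-7 days later. Supernatants were quantified by ELISA and filtered. Single-cycle surface plasmon resonance was run on a Biacore T200 at 25° C in HBS-P+ (pH 7.4), with IgG captured on Protein A and His-tagged CEACAM1 as analyte. Kon, koff and Kd were fitted, and relative KD was calculated against the parent antibody assayed in the same experiment.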

[9] = target: T3, CEACAM6 on transfected HeLa cells; assay: flow cytometry, HeLa-CEACAM6 transfectants, % staining, stacked bars
Excerpt: as §1

[10] = target: T1, CEACAM5 on transfected HeLa cells; assay: flow cytometry, HeLa-CEACAM5 transfectants, % staining, stacked bars
Excerpt: as §1

Molecule: irrelevant IgG4 antibody
- relative amount of cells bound [1]: 1.02
- relative amount of cells bound [2]: 0.37
- relative amount of cells bound [3]: 1.39

B2: 9B3_9E5/CP08E05 (antibody, IgG4, V domains shown)
VH: EVQLLESGGGLVQPGGSLRLSCAASGFTFNAHAISWVRQAPGKGLEWVATISSGGTYTYYPDSVKGRFTISRDNSKNTLYLQMNSLKAEDTAMYYCARHGFDYDAAWFAYWGQGTLVTVSS
VL: EIVLTQSPATLSLSPGERATLSCRANSAVSYMYWYQQKPGQAPRPWIYLTSNRATGVPARFSGSGSGTDYTLTISSLEPEDFAVYYCQQWTTNPPTFGQGTKLEIK
notes: IgG4 (S241P), kappa
- binding result [5]: binds
- Kd (His-tagged CEACAM1 [6]): 0.061 µM
- koff (His-tagged CEACAM1 [6]): 0.007 s⁻¹
- kon (His-tagged CEACAM1 [6]): 110000 M⁻¹ s⁻¹
- relative KD to parent (His-tagged CEACAM1 [6]): 7.8
- Kd (His-tagged CEACAM1 [7]): 0.067 µM
- koff (His-tagged CEACAM1 [7]): 0.0078 s⁻¹
- kon (His-tagged CEACAM1 [7]): 120000 M⁻¹ s⁻¹
- relative KD to parent (His-tagged CEACAM1 [7]): 8.3

Results, then the molecule that gave them:

- Kd (His-tagged CEACAM1 [4]): 0.198 µM
- koff (His-tagged CEACAM1 [4]): 0.0299 s⁻¹
- kon (His-tagged CEACAM1 [4]): 151000 M⁻¹ s⁻¹
- relative KD (His-tagged CEACAM1 [4]): 1.89
- relative amount of cells bound [1]: 15.5
- relative amount of cells bound [2]: 79.9
- relative amount of cells bound [3]: 0.18
B1: VH0/Vκ0 N26Q (antibody, IgG4, name in Kabat numbering, V domains shown)
VH: EVQLVESGGDLVKPGGSLKLACAASGFIFSSHGMSWVRQTPDKRLEWVATISSGGTYTYYPDSVKGRFTISRDNDKNTLYLQMNSLKSEDTAMYYCARHDFDYDAAWFAYWGQGTLVTVSS
VL: QIVLTQSPALMSASPGVKVTMTCSAQSSVSYMYWYRQKPRSSPKPWIYLTSNLASGVPARFSGSGSGTSYSLTISSMEAEDAATYYCQQWSSNPPTFGSGTKLEIK
notes: aglycosylated chimeric, IgG4 (S241P), kappa

- binding result [5]: binds
- Kd (His-tagged CEACAM1 [6]): 0.072 µM
- koff (His-tagged CEACAM1 [6]): 0.007 s⁻¹
- kon (His-tagged CEACAM1 [6]): 97000 M⁻¹ s⁻¹
- relative KD to parent (His-tagged CEACAM1 [6]): 6.6
- Kd (His-tagged CEACAM1 [8]): 0.078 µM
- koff (His-tagged CEACAM1 [8]): 0.0075 s⁻¹
- kon (His-tagged CEACAM1 [8]): 96000 M⁻¹ s⁻¹
- relative KD to parent (His-tagged CEACAM1 [8]): 7.1
B3: CP09C02/CP08E05 (antibody, IgG4, V domains shown)
VH: B2 VH with G26E, N30S, A31D, I34M
VL: B2 VL
notes: IgG4 (S241P), kappa

- binding result [5]: no binding
- Kd (His-tagged CEACAM1 [6]): 0.11 µM
- koff (His-tagged CEACAM1 [6]): 0.008 s⁻¹
- kon (His-tagged CEACAM1 [6]): 76000 M⁻¹ s⁻¹
- relative KD to parent (His-tagged CEACAM1 [6]): 4.5
- binding result [9]: no binding
- Kd (His-tagged CEACAM1 [8]): 0.12 µM
- koff (His-tagged CEACAM1 [8]): 0.0085 s⁻¹
- kon (His-tagged CEACAM1 [8]): 71000 M⁻¹ s⁻¹
- relative KD to parent (His-tagged CEACAM1 [8]): 4.6
- binding result [10]: no binding
B4: CP08H03/CP08E05 (antibody, IgG4, V domains shown)
VH: B2 VH with T28I, N30S, A31S, A33G, I34M, G100D, D104F, A105P, A106Y, Y110H
VL: B2 VL
notes: IgG4 (S241P), kappa
